Test: yeast display, Sf9 membrane polyspecificity reagent, FACS + sequencing; frameworks hold sequencing errors
Summary of the method: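 After 36–48 hours of galactose induction, yeast (Saccharomyces cerevisiae BJ5465) displaying a synthetic nanobody library were stained at 4 °C for 1 hour with 10% biotinylated, detergent-solubilized Sf9 membrane reagent. Streptavidin microbeads enriched the stained cells before FACS sorting into low and high (top ~1%) gates on anti-HA and streptavidin fluorescence. Each clone's polyreactivity label reflects its gate of origin.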

## QVQLVESGGGLVQAGGSLRLSCAASGSTFNRYAMGWYRQAPGKERELVAAISSGGTTYYADSVKGRFTSSRDNAKNTVYLQMNSLKPEDTAVYYCNARKYGWVQRIIIYDYWGQGTQVTVSS
  polyreactivity (PSR sort gate): high polyreactivity

## QVQLVESGGGLVQAGGSLRLSCAASGSTFNRYAMGWYRQAPGKERELVAAITSTGGTNYADSVKGRFTISLDNAKNTVYLQMNSLKPEDTAVYYCAKRWLRWRSNYWGQGTQVTVSS
  polyreactivity (PSR sort gate): high polyreactivity

## QVQLVESGGGLVQAGGSLRLSCAASGSTFNRYAMGWYRQAPGKERELVASISCSGGASTYYADSVKGRFTISRDNAKNTVYLQMNSLKPEDTAVYYCAVSRDSYGGKGSVLYDYWGQGTQVTVSS
  polyreactivity (PSR sort gate): low polyreactivity

## QVQLVESGGGLVQAGGSLRLSCAASGSTFNRYGMGWYIQAPGKERELVAAISGSNGGTYYADSVKGRFTISRDNAKNTVYLQMNSLKPEDTAVYFCAKVRAYTRLGLTVSMDYWGQGTKVTVSS
  polyreactivity (PSR sort gate): high polyreactivity

## QVQLVESGGGLVQAGGSLRLSCAASGSTFNRYVMGWYRQAPGKERELVAANGGRTYYADSVKGRFTISRDNAKNTVYLQMNSLKPEDTAVYYCNARSYKHPYYRFDYWGQGTQVTVSS
  polyreactivity (PSR sort gate): high polyreactivity

## QVQLVESGGGLVQAGGSLRLSCAASGSTFNSYAMGWYRQAPGKERELVAAISWSGGSTYYADSVKGRFTISRDNAKNTVYLQMNSLKPEDTAVYYCNADYWWEYAYGVDYWGQGTQVTVSS
  polyreactivity (PSR sort gate): low polyreactivity

## QVQLVESGGGLVQAGGSLRLSCAASGSTFNSYARGWYRQAPGTERELVAAITSSVGSTYYADSVKGRFTISRDNAKNTVYLQMNSLKPEDTAVYYCDRDYFNREAFDYWGQGTQVTVSS
  polyreactivity (PSR sort gate): low polyreactivity

## QVQLVESGGGLVQAGGSLRLSCAASGSTFNYNAMGWYRQAPGKEREFVAAISRSGGSTSYADSVKGRFTLSRDNAKNTVYLQMNSLKPEDTAVYYCAAYYRKTGYDYWGQGTQVTVSS
  polyreactivity (PSR sort gate): high polyreactivity

## QVQLVESGGGLVQAGGSLRLSCAASGSTFNYNAMGWYRQAPGKERELVAAINRSGGRTYYADSVKGRFTISRDNAKNTVYLKMNSLKPEDTAVYYCAKRYYKSLNRDEFDSWGQGTQVTVSS
  polyreactivity (PSR sort gate): high polyreactivity

## QVQLVESGGGLVQAGGSLRLSCAASGSTFNYNAMGWYRQAPGKERELVADISWRGGITYYADSVKGRFTISRDNAKNTVYLQMNSLKPEDTAVYYCNADAESFDDGYWGQGTQVTVSS
  polyreactivity (PSR sort gate): low polyreactivity

## QVQLVESGGGLVQAGGSLRLSCAASGSTFNYYAMGWYRQAPGKERELVAVITNGGTTYYADSVKGRFTISRDNAKNTVYLQMNSLKPEDTAVYYCAAALLGRSKRFYYWGQGTQVTVSS
  polyreactivity (PSR sort gate): high polyreactivity

## QVQLVESGGGLVQAGGSLRLSCAASGSTFPANAMGCYRQAPGKERELVATISWSCGRTYYADSVKGRFTISRDNAKNTVYLQMNSLKPEDSAVYYCAKGYYWLSTYGDSRYGYWGQGTQVTVSS
  polyreactivity (PSR sort gate): high polyreactivity

## QVQLVESGGGLVQAGGSLRLSCAASGSTFPANAMGWYRQAPGKERELVATISWSGGRTYYADSVKGRFTISRDNAKNTVYIQMNSLKPEDTAVYYCAAYPLYRRRWTGDYWGQGTQVTVSS
  polyreactivity (PSR sort gate): high polyreactivity

## QVQLVESGGGLVQAGGSLRLSCAASGSTFPAYAMGWYRQAPGKERELVAAITRGGSTNYADSEKGRFTISRDNAKNTVYLQMNSLKPEDTAVYYCAADKRYWWRYNYWASRSRGESWGQGTQVTVSS
  polyreactivity (PSR sort gate): high polyreactivity

## QVQLVESGGGLVQAGGSLRLSCAASGSTFPAYTMGWYRQAPGKERELVAAINVSSGGSTYYADSVKGRFTISRDNAKNTVYLQMNSLKPEDTAVYYCATRYVTTGYDYWGQGTQVTVSS
  polyreactivity (PSR sort gate): low polyreactivity

## QVQLVESGGGLVQAGGSLRLSCAASGSTFPDYAMGWSRPAPGKERELVATINDGDSTSYADSVKGRFTISRDNAKNTVYLQMNSLKTEDTAVYYCAADIRSNRLYDGGYWGQGTQVTVSS
  polyreactivity (PSR sort gate): low polyreactivity

## QVQLVESGGGLVQAGGSLRLSCAASGSTFPDYAMGWYRQAPGKDRELVAAISGDSDDTYYADSVKGRFTISRDNAKNTVYLQMNSLKPEDTAVYYCAARRGRAVYSVAYDYWGQGTQVTVSS
  polyreactivity (PSR sort gate): high polyreactivity

— the nanobody polyreactivity screen of Harvey et al. (2022)
